# Data as given in the nanobody polyreactivity screen of Harvey et al. (2022).
# Experiment: yeast display, Sf9 membrane polyspecificity reagent, FACS + sequencing; frameworks hold sequencing errors
# Summary of the method: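 A synthetic nanobody library was expressed on Saccharomyces cerevisiae BJ5465 by galactose induction for 36–48 hours. The library was stained for 1 hour at 4 °C with 10% biotinylated, detergent-solubilized Sf9 membrane reagent and enriched with streptavidin microbeads before FACS. Low and high (top ~1%) gates were set on anti-HA fluorescence for expression and streptavidin fluorescence for reagent binding, and each polyreactivity label reflects the gate of origin.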
row,Sequence,polyreactivity (PSR sort gate)
1,QVQLVESGGGLVQAGGSLRLSCAASGFIFKSYAMGWYRQAPGKETELVAAISRSGSSTYYADSVKGRFTISRDNAKNTVYLQMNSLKPEDTAVYYCAKKGYRFIHFGYDYWGQGTQVTVSS,high polyreactivity
2,QVQLVESGGGLVQAGGSLRISCAASGRIFERNAMRWYRQAPGKERELVAAITYNGGRTYYADSVKGRFTISRDNAKITVYLQMNSLKPEDTAVYNCNAQSRVTRSSYRGSPRYDFWGQGTQVTVSS,high polyreactivity
3,QVQLVESGGGLVQAGGSLRLSCAASGFTFAVNVMGWYIHAPGKEREFDAAISWTGGSTDYADSVKGRFTISLDNAKNTVYLQMNSLKPEDTAVYYCAADYNLRLQPFRKLVGPAGGYWGQGTQLTVSS,low polyreactivity
4,QVQLVESGGGLVQAGGSLRLSCAAYGSILARYAMGWYRQAPGKERELVAAISYNGGSTYYADSVKGRFTISRDNAKNTVYLQMNSLKPEDTAVYYCAKAYDTTLTYNFWGQGTQVTVSS,low polyreactivity
5,QVQLVESGGGLVQAGGSLRLSCAASGFIFDGNAMGWYRQAPGKERELLAAISWDGGTYYADSVKGRFTISRDNAKNTVYLQMNSLKPEDTAVYYCNKPYGAETAHREFDYWGQGTQVTVSS,low polyreactivity
6,QVQLVESGGGLVQAGGSLRFSCAASGSIFHYYAMGWYRQAPGKERELVAAISGGSRTKYADSVKGRFTISRDNAKNTVYLQMNSLKPEDTAVYYCAKRYYYPYRYYYWGQGTQVTVSS,high polyreactivity
7,QVQLVESGGGLVQAGGSLRLSCAASGRIFNIYAMGWYRQAPGKERELVAAIRWNGGSTYYADSVKGRFTISRDNAKYTVYLQMYSLKPEDSAVYYCAAARRRRFYDYYNAWYDVDYWGQGTQVSVSS,low polyreactivity
8,QVQLVESGGGLVQAGGSLRLSCAASGIIFDGNAMGGYRQAAGKERELVAAHTSSTDSTYYADSVKGRFTISRDNAKNTVYLQMNSLKPEDTAVYYCAADYPSKTFDYWGQGTQVTVSS,low polyreactivity
9,QVQLVESGGGLVQAGGSLRLSCAASGFTFRENAMGWSRQAPGKERELVAAISSSGGSTYYADSVKGRFTISRDNAKNTVYLQMNSLKPEDTAVYYCAADATLSFDYWGQGTQVTVSS,high polyreactivity
10,QVHLVDSGGGLVQAGGSLRLSCSASGLIFSGYAMRWYRQAPGKERELVAAITRRGSRTYYADSVTGRFTISRDKAKNTVYLQMNSLKPEDTAVYYCAADRFQGRDDYWGQGTQVTVSS,high polyreactivity
11,QVQLVESGGGLVQAGGSLRLSCAASGFTFRVNAMGWYRQAPGKERELVAAISSGGSTNYADSVKGRFTISRDNAKNTVYLQMNSLKPEDTAVYYCAKRFKYIYYWGQGTQVTVSS,high polyreactivity
12,QVQLVESGGGLVQAGGSLRLSCAASGSTFLPYALGWYRQAPGKERELVAAIDWNGGRTYYADSVKGRFTISRDNAKNTVYLQMNSLKPEDTAVYYCAKLGRAAQGNYYWGQGTQVTVSS,high polyreactivity
13,QVQLVESGGGLVQAGGSLRLSCAASGSTVRVYAMGWYRQAPGKERELVARISITGGTTRYADSVKGRFTISRDNAKNTVYLQMNSLKPEDTAVYYCNADYDWYYWYLYKYPFDYWRQGTQVTVSS,low polyreactivity
14,QVQLVESGGGLVQAGGSLRLSCAASGLTFKFYDMGWYRQAPVKEREFVAGITSSGGTTYYADSVKGRFTISRDNAKNTVYLQMNSLKPEVTAVYYCAAADIDDGPFDSWGQGTQVNVSS,low polyreactivity
15,QVQLVASGGGLVQAGGSLRLSCAASGTTLYYYAKGWYRQAPGKEREMGAYISSSGDRTYYADSVNGRFTISRDNAKNTVDLQMNSLKPEDTAVYYCNAYLYVSGLDYATYSLGYWGQGTQVTVSS,low polyreactivity
16,QVQLVESGGGLVQAGGSLRLSCAASGNTFYWYVMGWYRQAPGKERELVARITSSGGSTNYADSVKGRFTISRDNAKNTVYLQMNSLKPEDTAVYYCAADDIYLYGGGTDYYYWGQGTQVTVSS,low polyreactivity
17,QVQLVDSGGGLVQAGGSLRLSCAASGPIFKRYAMGWYRQAPGKERELVASITTSGDSTYYADSVKGRFTISRDNAKNTVYLQMNSLKPEDTAVYYCAGRSYSGRRYDYWGQGTQVTVSS,high polyreactivity
18,QVQLVESGGGLVQAGGSLRLSSAASGSILGDYGMGWYRQAPGKERELVAAITWNGDSTYYADSVKGRFTISRDNAKNTVYLQMNSLKPEDTAVYYCAADLQDYKYYPWYGYWGQGTQVTVSS,low polyreactivity
19,QVQLVESGGGLVQAGGSLRLSCAASGITFKYYVMGWYRQAPGKEREFVAAISWGGGSTYYADSVKGRFTISRDNAKNTVYLQMNSLKPEDTAVYYCAARKGYYTHVQIGYRQSMDYWGQGTQVTVSS,high polyreactivity
20,QVQLGESGGGLVQAGGSLRLSCAASGSTFAYNDMGWYRQAPGKEMELVADIRSGGNTKYADSVKGRFTISRDNAKNTVYFQMNSLKPEDTAVYYCATDGYRIDVYHPDYRYDYWGQGTQVTVSS,low polyreactivity

row,Sequence,polyreactivity (PSR sort gate)
1,QVQLVESGGGLVQAGGSLRLSCAASGSTFSRYAMGWYRQAPGKERELVAAISSSGGSTYYADSVKGRFTISRDNAKNTVYLQMNSLKPEDTAVYYCAARIWRTRRYDYWGQGTQVTVSS,high polyreactivity
2,QVQLVESGGGLVQAGGSLRLSCAASGSTFDIYVMGWYRQAPGKERELVAAISRVGNTSYADSVKGRFTISRDNAKNTVYLQMNSLKPEDTAVYYCAADAPSWYDRQYDYWGQGTQVTVSS,low polyreactivity
3,QVQLVESGGGLVQAGGSLRLSCAASGRTFYPNAMGWYRQAPGKERELVAAITTDGSTYYADSVKGRFTISRDNAKNTVYLQMNSLKPEDTAVYYCAARGFWWPYTYYYWGHGTQVTVSS,high polyreactivity
4,QVQLVESGGGLVQAGGRLRLSCAASGSIFIGYAMGWYRPAPGKERELVAAISGSGSSTYYADSVKGRFTISRDNAKNTVYLQMNSLKPEDTAVYYCAARTYSRFTASTYYYWGQGTQVTVSS,high polyreactivity
5,QVQLVESGGGLVQAGGSLRLSCAASGFIFVGYAMGWYRQAPGKERELVAAISKSGGSTYYADSVKGRFTISRDNAKNTVYLQMNSLKPEDTAVYYCAAAYASRNYRGLDYWGQGIQVTVSS,high polyreactivity
6,QVQLVESGGGLVQAGGSLRLSCAASGRSFQGYAMGWYRKAPGKERELVAAISWSGGSTYYADSVKGRFTISRDNAKNTVYLQMNSLKPEDTAVYYCAASYDIYGNYRRYDYWGQGTQVTVSS,high polyreactivity
7,QVQLVESGGGLVQAGGSLRLSCSASGSTFAYYTMGWYRQAPGKERELVAAISRSGGSTYYSDSVKGRFTISRDNAKNTVYLQMNSLKPEDTAVYYCAADKHYAVIPYEYWGQVTQVTVSS,high polyreactivity
8,QVQLVESGGGLGQAGGSLRLSCAASGYTFGKYAMGWYRPAPGKERELVAAISWSGGSTYYADSVKGRFTISRDNAKNTVYLQMNSLKPEDTAVYYCNIGYIGRYGYWGQGTQVTVSS,high polyreactivity
9,QVQLVESGGGLVQAGGSLRLSCAASGYTFYFYAMGWSRQAPGKEREFVAAIRSSGGRTYYADSVKGRFTISRDNAKNTVYLQMNSLKPVDTAVYYCAAAGYYYSVDGAGPRYDYWGQGTQVTVSS,low polyreactivity
10,QVQLVESGGGLVQAGGSLRLSCAASGLIFLQYGLGWYRQAPGKERALVAAITTRGGRTYYADSVKGRFTISRDNANNTVYLQMNSLKPEDTAVYYCAADSEQDNLRYYRWVWYYYWGQGTQVTVSS,low polyreactivity
11,QVQLVESGGGLVQAGGSLRLSCAASGYTFSFYAMGWYRQATGKERELVADISRSGGSTYYADSVKGRFTISRDNAKNTVYLQMNSQKPEDTAVYYCAARWPGAYHEYGYLGQGTQVTVSS,high polyreactivity
12,QVQLVESGGGLVQAGGSLRLSCAASGSIFSGYAMGWYRQAPGKERELVAAITWRAASTYYADSVKGRFTISRDNAKNTVYLQMNSLKPEDTAVYYCAKEGWPKPAFYYWGQGTQVTVSS,low polyreactivity
13,QVQLVESGGGLVQAGGSLRLSCAASGRTFIYNAMAWYRQAPWKERELVAGITRSGGSTYYADSVKGRFTISRDNAKNTVYLQMNSLKPEDTAVYYCAAARRTKTFSSYYYWGQGTQVTVSS,high polyreactivity
14,QVQLVESGGGLVQAGGSLRLSCAASGFIFGAYAMGWYRQAPGKERELVAAISRRGGSTYYADSVKGRFTISRDNAKNTVYLQMNSLKPEDTAVYYCAADISGSYYRPQYDYWGQGTQVTVSS,low polyreactivity
15,QIQLVESGGWLVQAGGSLRLRCAASGNTIHWNVMVWYRQPPGKERELVATITFSGSSTYYADSVKGRFTISRDNAKNTVYLQMNSLQPEDTAVYFCNATRYRLRPSGVRYKYNYWGQGTQGTVSS,low polyreactivity
16,QVQLVESCGGLVEAGGSLRLSCAASGSILYSNAMGWYRQGPGKESELVAAIRSGGSTSYADSVKGRFTISRDNANNTVYLQMNSLKPDDTAVYYSAADPSSGVTYGMYYWGQGSQVTVSS,low polyreactivity
17,QFQLVESGGGLVQAGGSLRLSCAASGFTFYYYAMGWYRQAPGKERELVAAISSSGSSTYYADSVKGRFTISRVNAKNTVYLQMNSLKREDTAVYYWNARRYEYLWGDYWGQGTQVTVSS,high polyreactivity
18,QVQLVESGGGLVQAGGSLRLSCAASGLTLGRYAKGWYRQAPGKARELVAVITGGGSTNYADSVKGRFTISRDNAKNTVYLQMNTLKTEDTAVYFCAVRGGIFQTLSTWYRYYYWGQGTQVTVSS,high polyreactivity
19,QVQLVESGGGLVQAGGSLRLSCAASGSIFAGYAMGWYRQAPGKERELVATITSGGSTNYADSVKGRFTISRDNAKNTVYLQMNSLKPEDTAVYYCAADVEDSIPSSYTGGEYDYWGQGTQGTVSS,low polyreactivity
20,QVQLVESGGGLVQAGGSLRLSCAASGSIFIIYAMGWYRQAPGKERALVAAISRGGTSTYADSVKGRFTISRDNAKNTVYLQMNSLKPEDTAVYYCNARRSSRTNRYNYWGQGTQVTVSS,high polyreactivity
